# Source: article PMC6231261, “Enhanced triacylglycerol production in the diatom Phaeodactylum tricornutum by inactivation of a Hotdog-fold thioesterase gene using TALEN-based targeted mutagenesis” (Biotechnology for Biofuels, 2018)
# B1: ptTES1 (Phaeodactylum tricornutum CCAP 1055/1) (protein)
# chain: MGLIHTPRTIVSIAKGLWKRRQGTVDWPGLGPDKPYVYNARLGLFDVDYLGHLNNAAYLSHAELARWELTAANGMLTSMLQSGTNFIVSGSCIRYRQEIRPVFRKFQVDTYVAGLDQRTIWMVQNFRYPGQNERIRAQMIVQGVAVQKTKGIIDPRSFFVDTVGMPSDLIESVNLPITSDDTVEDVLERYSFLEKALRRAATVDDELQKKEANKE
# notes: codon-optimized synthetic gene in pET28a, His6-tagged, E. coli Rosetta (DE3), Ni-NTA purified, about 25 kDa on SDS-PAGE; tag removal not mentioned
# Columns and labels:
# Assay in all cases: DTNB spectrophotometric CoA release (A412)
# Assay type in all cases: biochemical, Phaeodactylum tricornutum
# [1] = substrate: CC/C=C\C/C=C\C/C=C\C/C=C\C/C=C\CCCC(=O)SCCNC(=O)CCNC(=O)[C@H](O)C(C)(C)COP(=O)(O)OP(=O)(O)OC[C@H]1O[C@@H](n2cnc3c(N)ncnc32)[C@H](O)[C@@H]1OP(=O)(O)O; conditions: 10 mM HEPES pH 7.5, 50 mM KCl, 0.3 mM DTNB, room temperature in methods (37 °C in Fig. 1 legend)
# Description: (§1) DTNB spectrophotometric CoA release (A412) on ptTES1
# [2] = substrate: CCCCCCCC/C=C\CCCCCCCC(=O)SCCNC(=O)CCNC(=O)[C@H](O)C(C)(C)COP(=O)(O)OP(=O)(O)OC[C@H]1O[C@@H](n2cnc3c(N)ncnc32)[C@H](O)[C@@H]1OP(=O)(O)O; conditions: 10 mM HEPES pH 7.5, 50 mM KCl, 0.3 mM DTNB, room temperature in methods (37 °C in Fig. 1 legend), substrate inhibition above 60 μM
# Description: as §1
# [3] = substrate: CC(C)(COP(=O)(O)OP(=O)(O)OC[C@H]1O[C@@H](n2cnc3c(N)ncnc32)[C@H](O)[C@@H]1OP(=O)(O)O)[C@@H](O)C(=O)NCCC(=O)NCCSC(=O)CC(=O)O; conditions: 10 mM HEPES pH 7.5, 50 mM KCl, 0.3 mM DTNB, room temperature in methods (37 °C in Fig. 1 legend)
# Description: as §1
# [4] = substrate: CCCCCCCCCCCCCC(=O)SCCNC(=O)CCNC(=O)[C@H](O)C(C)(C)COP(=O)(O)OP(=O)(O)OC[C@H]1O[C@@H](n2cnc3c(N)ncnc32)[C@H](O)[C@@H]1OP(=O)(O)O; conditions: 10 mM HEPES pH 7.5, 50 mM KCl, 0.3 mM DTNB, room temperature in methods (37 °C in Fig. 1 legend)
# Description: as §1
# [5] = substrate: CCCCCCCCCCCCCCCCCC(=O)SCCNC(=O)CCNC(=O)[C@H](O)C(C)(C)COP(=O)(O)OP(=O)(O)OC[C@H]1O[C@@H](n2cnc3c(N)ncnc32)[C@H](O)[C@@H]1OP(=O)(O)O; conditions: 10 mM HEPES pH 7.5, 50 mM KCl, 0.3 mM DTNB, room temperature in methods (37 °C in Fig. 1 legend)
# Description: as §1
# [6] = substrate: CCCCCCCCCCCCCCCC(=O)SCCNC(=O)CCNC(=O)[C@H](O)C(C)(C)COP(=O)(O)OP(=O)(O)OC[C@H]1O[C@@H](n2cnc3c(N)ncnc32)[C@H](O)[C@@H]1OP(=O)(O)O; conditions: 10 mM HEPES pH 7.5, 50 mM KCl, 0.3 mM DTNB, room temperature in methods (37 °C in Fig. 1 legend), substrate inhibition above 60 μM
# Description: as §1
# [7] = substrate: CCCCCCCCCC(=O)SCCNC(=O)CCNC(=O)[C@H](O)C(C)(C)COP(=O)(O)OP(=O)(O)OC[C@H]1O[C@@H](n2cnc3c(N)ncnc32)[C@H](O)[C@@H]1OP(=O)(O)O; conditions: 10 mM HEPES pH 7.5, 50 mM KCl, 0.3 mM DTNB, room temperature in methods (37 °C in Fig. 1 legend)
# Description: as §1
protein,measurement,setting,value
B1,Km,[1],38.61 µM
same,Vmax,[1],0.0164 µmol/min/mg
same,kcat,[1],0.0071 s⁻¹
same,kcat/Km,[1],184 M⁻¹ s⁻¹
same,Km,[2],12.37 µM
same,Vmax,[2],0.0508 µmol/min/mg
same,kcat,[2],0.022 s⁻¹
same,kcat/Km,[2],1780 M⁻¹ s⁻¹
same,Km,[3],14.64 µM
same,Vmax,[3],0.00205 µmol/min/mg
same,kcat,[3],0.0009 s⁻¹
same,kcat/Km,[3],60.7 M⁻¹ s⁻¹
same,Km,[4],21.79 µM
same,Vmax,[4],0.0302 µmol/min/mg
same,kcat,[4],0.0131 s⁻¹
same,kcat/Km,[4],602 M⁻¹ s⁻¹
same,Km,[5],8.246 µM
same,Vmax,[5],0.0451 µmol/min/mg
same,kcat,[5],0.0196 s⁻¹
same,kcat/Km,[5],2370 M⁻¹ s⁻¹
same,Km,[6],14.76 µM
same,Vmax,[6],0.0453 µmol/min/mg
same,kcat,[6],0.0196 s⁻¹
same,kcat/Km,[6],1330 M⁻¹ s⁻¹
same,Km,[7],91.76 µM
same,Vmax,[7],0.0228 µmol/min/mg
same,kcat,[7],0.0099 s⁻¹
same,kcat/Km,[7],108 M⁻¹ s⁻¹
